Measurements: article PMC12157425 (bioRxiv, 2025)
Where no end group is shown, it is not given here. [ ]: non-standard residue; d: D form. pT = C[C@@H](OP(=O)(O)O)[C@H](N)C(=O)O; pS = N[C@@H](COP(=O)(O)O)C(=O)O

How the values were obtained:
βarr1 = βarr1 (Homo sapiens, UniProt P49407, A12C/C125S/C140L/C150V/C242V/C251V/C269S/C59V/V387C); experiment: smFRET imaging of surface-tethered βarr1–12-387-AF488-AT647N C-tail sensor; assay type: biochemical; settings: parent sensor, 100 μM PIP2
3Q βarr1 = 3Q βarr1 (Homo sapiens, UniProt P49407, C125S/C140L/C150V/C242V/C251V/C269S/C59V/K232Q/K250Q/R236Q); experiment: Fluorescence polarization binding of BODIPY-PIP2 to 3Q βarr1; settings: FP with a BODIPY-derivative of PIP2
[1] = biological target: βarr1–12-387-AF488-AT647N (cysteine-free human β-arrestin 1 C-tail sensor with cysteines at positions 12 and 387) (human) (UniProt P49407); experiment: other fluorescence titration
[2] = biological target: βarr1–12-398-AF488-AT647 (human) (UniProt P49407)
[3] = biological target: βarr1–12-387-AF488-AT647N (cysteine-free human β-arrestin 1 C-tail sensor with cysteines at positions 12 and 387) (human) (UniProt P49407); experiment: single-molecule FRET
[4] = biological target: 3A βarr1 (F388A/V387C/I386A triple mutant of the βarr1–12-387 C-tail sensor) (human) (UniProt P49407); experiment: single-molecule FRET
[5] = biological target: βarr1–12-387-AF488-AT647N (cysteine-free human β-arrestin 1 C-tail sensor with cysteines at positions 12 and 387) (human) (UniProt P49407); experiment: single-molecule FRET; remark: listed apart in the source

| Molecule | mid-FRET dwell time representing the PIP2-bound state (βarr1) [s] | binding of PIP2 to βarr1 3Q (3Q βarr1) | EC50 [1] [µM] | EC50 [2] [µM] | EC50 [3] [µM] | EC50 [4] [µM] | EC50 [5] [µM] |
| --- | --- | --- | --- | --- | --- | --- | --- |
| phosphatidylinositol 4,5-bisphosphate [PIP2] | ~2 | essentially lost binding | – | – | – | – | – |
| ARGRTPPSLGPQDESCT[pT]A[pS][pS][pS]LAKDTSS [P56, V2Rpp-derived phosphopeptide lacking four N-terminal phosphorylation sites] | – | – | 30 | – | – | – | – |
| ARGR[pT]PP[pS]LGPQDE[pS]C[pT][pT]A[pS][pS][pS]LAKDTSS | – | – | 1.5 | 0.75 | 11.8 | 0.4 | 11.6 |
